{"source": "paper PMC5956149"}
{"molecular_target": "GFP-tagged MtrB (cytosolic catalytic domain of MtrB with GFP downstream) (Mycobacterium tuberculosis)", "assay": "MST", "units": {"Kd": "nM"}}
{"substance": "MtrB wild type (cytosolic catalytic domain) (domain or fragment)", "Kd": 1170}
{"substance": "MtrB^H305Q (phosphorylation site mutant, cytosolic catalytic domain) (domain or fragment)", "Kd": 410}
{"substance": "MtrB^N419D (mutant defective in ATP binding, cytosolic catalytic domain) (domain or fragment)", "Kd": 770}
